The values below come from article PMC11570697, “2D4, a humanized monoclonal antibody targeting CD132, is a promising treatment for systemic lupus erythematosus” (Signal Transduction and Targeted Therapy, 2024).

For test [1], the target named is human CD132 (common gamma chain cytokine receptor) (human) (UniProt P31785).
The target of test [2] is human CD132 (common gamma chain cytokine receptor) (human, UniProt P31785). In words: cell-based or functional assay.
human CD132 (common gamma chain cytokine receptor), sequence (P31785 23-262): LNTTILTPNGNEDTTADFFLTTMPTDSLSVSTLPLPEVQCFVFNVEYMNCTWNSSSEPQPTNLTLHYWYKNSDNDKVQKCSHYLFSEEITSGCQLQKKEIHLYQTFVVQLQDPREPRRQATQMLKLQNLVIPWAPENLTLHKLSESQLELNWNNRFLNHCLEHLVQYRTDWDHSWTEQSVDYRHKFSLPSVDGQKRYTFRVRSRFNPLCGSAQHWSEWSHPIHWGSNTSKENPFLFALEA

human CD132 (common gamma chain cytokine receptor) (human), sequence (P31785 23-262): as above

In the case of “REGN7257, pan CD132 blocking monoclonal antibody”, the maximum percent inhibition of IL-2-induced STAT5 phosphorylation in CD3+ T cells of human PBMCs (gradient dilutions, up to 200 nM antibody) in test [1] is 100%.

B1: 2D4, humanized anti-CD132 monoclonal antibody (antibody, V domains shown)
VH: QVQLVQSGAEVKKPGSSVKVSCKTSGFNIEDIYLHWVRQAPGQGLEWMGRIDPANGKSNYDPKFQGRVTITADTSTSTAYMELSSLRSEDTAVYYCAALRFFGLDYWGQGTLVTVSS
VL: EIVLTQSPATLSLSPGERATLSCRATSSVSYMYWYQQKPGQAPELLIYRTSNLASGIPARFSGSGSGTDYTLTISSLEPEDFAVYYCQQWSSNPPTFGQGTKLEIK
In the case of B1, in test [2], the “IC50 of blocking human IL-21: IFN-γ secretion by NK92 cells (ELISA), relative to REGN7257” value came to 10 fold and the “IC50 of blocking human IL-21: STAT3 phosphorylation in CD3+ T cells of human PBMCs (flow cytometry), relative to REGN7257” value is below 2 fold.
